According to the supplement of paper PMC10567573:

B1: ZBTB22 (parent)
chain: FSSSSQEAFAASAVGSGERRGGGP
B2: PCDHGA10 (parent)
chain: FHELQMQVTASDSGDPPLSSNVSL

Variants of: B1
Assay: protein stability index of a GFP-peptide fusion (GPS, HEK-293T) (PSI 1-6); higher = more stable
Conditions: c terminus: a fixed tail appended
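Also: lentivirally expressed fusions sorted by FACS into six bins by GFP to DsRed ratio, PSI derived from sequencing read proportions per bin multiplied by bin number.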

Protein stability index: each site, then its substitutions
P24: Y 2.86

Variants of: B2
Assay: as above
Conditions: c terminus: a fixed tail appended

Protein stability index, by site and new letter:
L24: M 2.68; F 2.06; S 3.29; E 3.07; N 2.96; W 2.64; C 2.84
L18: T 2.74; G 3.05; P 3.02; K 2.31; N 2.34; M 2.31; Q 3; V 2.43
G14: E 2.98; Y 1.94; N 2.27; V 2.59; I 2.12; L 2.11; H 2.54; M 2.09; C 2.44; R 2.21
V22: S 3.11; H 3.13; P 2.34; M 2.34; A 2.52
F1: T 4.57; K 4.51; Q 4.62; R 4.66; D 4.91; A 4.58; M 4.06; H 4.61; S 5.08
L4: V 2.84; P 2.57; F 1.39; W 2.2; H 2.87; D 3.84; T 2.97; Y 2.04
M6: H 2.98; A 2.84; Y 2.46; N 3.46
S20: Q 1.98; N 2.47; K 1.85; T 2; W 3.19
H2: K 3.84; C 2.11; A 3.07; R 3.85; L 2.51; S 3.83; F 2.21
Q5: G 2.73; T 2.16; C 1.88; L 1.4; S 2.11; M 1.91; D 3.32
S11: K 2.9; C 2.12; H 2.16; P 2.21; V 1.93
S23: K 2.84; E 3.33; G 2.01; C 1.72; Q 2.1; R 2.51
V8: W 1.25; I 2.29; E 3.94; F 1.95; Y 2.01; M 2.28; L 2.15
D15: H 1.88; A 2.08; W 3.09; G 1.97; R 2.18; Y 1.42; T 1.8; F 1.4; P 1.95
N21: H 2.06; F 1.54; D 2.5; Q 2.05; I 1.79; A 2.25; G 2.24; L 2.34; C 2.09; W 1.55; E 2.61
S13: C 2.43; I 1.66; N 2.43; V 1.67; E 2.69
A10: F 1.97; K 2.41; S 2.35; N 1.99; Q 2.44; W 1.86; D 2.62; T 2.13; P 2.88
S19: H 1.81; L 1.85; V 1.57; A 2.17; G 2; R 2.02; P 2.2
P17: N 2.12; M 2.38; V 1.78; S 2.13; Q 1.93; C 1.56; T 1.93; L 1.16; H 1.85
D12: V 1.73; K 2.35; W 1.81; C 1.98; S 2.15; I 2.07
E3: K 2.21; L 1.92; V 1.6; D 2.07; Y 2.26; C 2.53
P16: E 2.54; M 2.14; G 2.33; C 1.85
T9: D 2.65; A 2.55; G 2.86; F 2.63; N 2.83; R 2.88; K 2.65; P 3.32
Q7: W 2.57; I 2.62; M 1.7; C 1.6
